These results are taken from patent WO2010007376A2 (dated 2010).

Experiment [1] has as its target T1, recombinant human CD28/Fc Chimera (R&D Systems, Abingdon, UK) (human, UniProt P10747 19-152).
T1 construct: Bought reagent; Fc part of the bought chimera not given
In words: BIAcore, CM5 chip coated with 12500 RU of CD28-Fc; dAb at 16.6 uM.

The target in experiment [2] is T1, recombinant human CD28/Fc Chimera (R&D …). In words: BIAcore, CM5 chip coated with 12500 RU of CD28-Fc; dAb at 13.8 uM. On the technique in general: In SPR one partner is held on a chip, and binding of the other changes the refractive index at the surface.
Experiment [3] shares this target. As to the kind of experiment: BIAcore, CM5 chip coated with 12500 RU of CD28-Fc; dAb at 42.3 uM.
Experiment [4] shares this target. In words: BIAcore, CM5 chip coated with 12500 RU of CD28-Fc; dAb concentration not given.
For experiment [5] the target is unchanged. As to the kind of experiment: BIAcore, CM5 chip coated with 12500 RU of CD28-Fc; dAb at 57.5 uM.
Experiment [6] shares this target. As to the kind of experiment: BIAcore, CM5 chip coated with 12500 RU of CD28-Fc; dAb at 19.4 uM.

B1: DOM21-28 (other)
VL: DIQMTQSPSSLSASVGDRVTITCRASQSISHSLVWYQQKPGKAPKLLIYWASLLQSGVPSRFSGSGSGTDFTLTISSLQPEDFATYYCQQGMTTPFTFGQGTKVEIKR
notes: Human VK antibody single variable domain (dAb), expressed from pDOM5 and purified
As to B1, in experiment [1], the binding result is recorded as “binds”.

B2: DOM21-18 (other)
VL: DIQMTQSPSSLSASVGDRVTITCRASQYIGTSLNWYQQKPGKAPKLLTYQASLLQSGVPSRFSGSGSGTDFTLTISSLQPEDFATYYCQQLALRPMTFGQGTKVEIKR
notes: Human VK (DPK9/JK1) antibody single variable domain (dAb), expressed from pDOM5 and purified
In the case of B2, the binding result in experiment [2] is listed as “binds”.

B3: DOM21-4 (other)
VH: EVQLLESGGGLVQPGGSLRLSCAASGFTFSRYHMAWVRQAPGKGLEWVSVIDSLGLQTYYADSVKGRFTISRDNSKNTLYLQMNSLRAEDTAVYYCAEYGGAFDYWGQGTLVTVSS
notes: Human VH antibody single variable domain (dAb) from a DP47/JH4b library, expressed from pDOM5 and purified
Turning to B3, the binding result in experiment [3] was “binds”.

B4: DOM21-44 (other)
VH: EVQLLESGGGLVQPGGSLRLSCAASGFTFARYTMVWVRQAPGKGLEWVSAIHFDGRTTYYADSVKGRFTISRDNSKNTLYLQMNSLRAEDTAVYYCAKNEWASLKHFDYWGQGTLVTVSS
notes: Human VH antibody single variable domain (dAb), expressed from pDOM5 and purified
For the molecule B4, in experiment [4], the binding result is on record as “binds”.

B5: DOM21-38 (other)
VH: EVQLLESGGGLVQPGGSLRLSCAASGFTFILYDMQWVRQAPGKGLEWVSRISANGHDTYYADSVKGRFTISRDNSKNTLYLQMNSLRAEDTAVYYCAKGPHYLFDYWGQGTLVTVSS
notes: as for B4
Regarding B5, the binding result in experiment [4] is “binds”.

B6: DOM21-20 (other)
VH: EVQLLESGGGLVQPGGSLRLSCAASGFTFPAYSMIWVRQAPGKGLEWVSTISPLGYSTYYADSVKGRFTISRDNSKNTLYLQMNSLRAEDTAVYYCAEQTAYLNRATEHFDYWGQGTLVTVSS
notes: as for B4
For B6, the binding result in experiment [5] is “binds”.

B7: DOM21-22 (other)
VH: EVQLLESGGGLVQPGGSLRLSCAASGFTFELYQMGWVRQAPGKGLEWVSTIMPSGNLTYYADSVKGRFTISRDNSKNTLYLQMNSLRAEDTAVYYCAKMWSLNLGFHAAFDYWGQGTLVTVSS
notes: as for B4
On to B7, for which the binding result in experiment [6] is “binds”.
